{"source": "patent US20100120700A1", "about": "“METHODS AND COMPOSITIONS FOR TREATING CERVICAL CANCER” (priority 2000, published 2010)", "key": {"human PDZ domains": {"system": "human PDZ domains", "assay": "G assay, E6 PL peptides against PDZ domain panel", "settings": "value names the PDZ domain(s) that saturated binding with the E6 peptide; signal classes (A450 nm 3-4 or 4)", "protocol": "(1) A PDZ-domain polypeptide is bound to a surface, e.g. a protein binding surface. In a preferred embodiment, a GST/PDZ fusion protein containing one or more PDZ domains is bound to a polystyrene 96-well plate. […] In one embodiment, the GST/PDZ fusion protein is bound via an anti-GST antibody that is coated onto the 96-well plate. Adequate binding to the plate can be achieved when: • a. 100 uL per well of 5 ug/mL goat anti-GST polyclonal antibody (Pierce) in PBS is added to a polystyrene 96-well plate (e.g., Num Polysorb) at 4° C. for 12 hours. • b. The plate is blocked by addition of 200 uL per well of PBS/BSA for 2 hours at 4° C. • c. The plate is washed 3 times with PBS. • d. […]\n(3) The binding of the biotinylated peptide to the GST/PDZ fusion protein surface can be detected using a variety of methods and detectors known to one of skill in the art. […] The reaction of the HRP and its substrate is terminated by addition of 100 uL per well of 1M sulfuric acid, and the absorbance of each well of the plate is read at 450 nm.\n(4) Specific binding of a PL peptide and a PDZ domain polypeptide is determined by comparing the signal from the well(s) in which the PL peptide and PDZ domain polypeptide are combined, with the background signal(s). […]"}, "[1]": {"target": "GST-HPV18E6 fusion protein (Human papillomavirus type 18, UniProt P06463)", "sequence (P06463 whole entry, the tested form may be a part)": "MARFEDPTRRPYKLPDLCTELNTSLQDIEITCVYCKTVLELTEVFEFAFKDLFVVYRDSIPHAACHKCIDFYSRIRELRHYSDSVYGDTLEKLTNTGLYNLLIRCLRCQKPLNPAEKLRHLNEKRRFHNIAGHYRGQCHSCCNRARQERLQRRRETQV", "settings": "plate coated with 5 ug/ml GST-E6, unpurified TIP-TIP-IgG supernatant, FIG. 2", "description": "(§1) Protocol • 1) Coat plate with 5 ug/ml GST-E6 fusion protein, O/N @4° C. • 2) Dump proteins out and tap dry • 3) Blocking—Add 200 ul per well 2% BSA/PBS, 2 hrs at 4° C. • 4) Prepare PDZ proteins (50:50 mixture of supematant from TIP-TIP-IgG transfection and 2% BSA/PBS) • 5) 3× wash with cold PBS • 6) Add PDZ protein prepared in step 7 or anti-E6 Ab at 1 ug/ml in 2% BSA/PBS (or anti-GST Ab as control). • 7) 3× wash with cold PBS • 8) Add appropriate concentration of enzyme-conjugated detection Ab (anti-hIgG-HRP, anti-goat-HRP, or anti-mouse-HRP) 100 ul per well on ice, 20 minutes at 4° C. • 9) Turn on plate reader and prepare files • 10) 5× wash with Tween wash buffer, avoiding bubbles • 11) Using gloves, add TMB substrate at 100 ul per well • incubate in dark at room temp • check plate periodically (5, 10, & 20 minutes) • take early readings, if necessary, at 650 nm (blue) • at 30 minutes, stop reaction with 100 ul of 1M H2SO4 • take final reading at 450 nm (yellow)"}, "GST-HPV11E6": {"target": "T1, GST-HPV11E6 (Human papillomavirus 11, UniProt P04019)", "T1 construct": "made in house; host or cells: E. coli", "T1 sequence (P04019 whole entry)": "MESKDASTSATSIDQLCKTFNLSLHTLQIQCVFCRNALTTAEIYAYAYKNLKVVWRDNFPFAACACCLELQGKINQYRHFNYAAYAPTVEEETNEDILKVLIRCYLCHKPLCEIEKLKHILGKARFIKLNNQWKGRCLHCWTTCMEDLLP", "assay": "Modified ELISA, TIP-TIP-IgG binding to full length E6", "set-up": "species or system HPV11", "settings": "plate coated with 5 ug/ml GST-E6; FIG. 2", "description": "as §1"}}, "note": "Entries after “also recorded” stand apart in the source; their conditions may differ. Where two headings read alike, the source gives them in different places.", "data": [{"molecule": "HPV 18: biotinylated 18-20 aa E6 C-terminal peptide of HPV 18, terminal residues E T Q V; RLQRRRETQV (SEQ ID NO: 14)", "values": [{"measurement": "PDZ binding partner (signal 4 and 5 of 0-5)", "setting": "human PDZ domains", "result": "TIP1 and Magi 1 (PDZ #2)"}]}, {"molecule": "TIP-TIP-IgG fusion protein: two copies of the TIP-1 PDZ domain fused to the hIgG constant region (protein, left off: a dimerising Fc or GST, two copies of the TIP-1 PDZ domain fused to the hIgG constant region) QRVEIHKLRQGENLILGFSIGGGIDQDPSQNPFSEDKTDKGIYVTRVSEGGPAEIAGLQIGDKIMQVNGWDMTMVTHDQARKRLTKRSEEVVRLLVTRQSLQKQRVEIHKLRQGENLILGFSIGGGIDQDPSQNPFSEDKTDKGIYVTRVSEGGPAEIAGLQIGDKIMQVNGWDMTMVTHDQARKRLTKRSEEVVRLLVTRQSLQK", "values": [{"measurement": "binding to full length oncogenic E6 (HPV18)", "setting": "[1]", "result": "able to recognize GST-HPV18E6 fusion protein at levels comparable to an antibody generated against HPV18-E6"}, {"measurement": "binding to full length oncogenic E6 (HPV18)", "setting": "[1]; listed as TIP-1", "result": "could specifically recognize full length E6 protein from an oncogenic strain (HPV18)"}, {"measurement": "binding to full length non-oncogenic E6 (HPV11)", "setting": "GST-HPV11E6", "result": "did not show any reactivity; also recorded: without binding to non-oncogenic variants"}]}]}
